A word on the Kd: it is the constant that tells how readily two partners part at equilibrium.

The values below come from article PMC11933685 (Nature Communications, 2025).

This experiment deals with T1, recombinant mouse neuropilin-1 (C-6His, #C11R; NRP-1) (mouse, UniProt P97333 22-856).
T1 sequence (looked up): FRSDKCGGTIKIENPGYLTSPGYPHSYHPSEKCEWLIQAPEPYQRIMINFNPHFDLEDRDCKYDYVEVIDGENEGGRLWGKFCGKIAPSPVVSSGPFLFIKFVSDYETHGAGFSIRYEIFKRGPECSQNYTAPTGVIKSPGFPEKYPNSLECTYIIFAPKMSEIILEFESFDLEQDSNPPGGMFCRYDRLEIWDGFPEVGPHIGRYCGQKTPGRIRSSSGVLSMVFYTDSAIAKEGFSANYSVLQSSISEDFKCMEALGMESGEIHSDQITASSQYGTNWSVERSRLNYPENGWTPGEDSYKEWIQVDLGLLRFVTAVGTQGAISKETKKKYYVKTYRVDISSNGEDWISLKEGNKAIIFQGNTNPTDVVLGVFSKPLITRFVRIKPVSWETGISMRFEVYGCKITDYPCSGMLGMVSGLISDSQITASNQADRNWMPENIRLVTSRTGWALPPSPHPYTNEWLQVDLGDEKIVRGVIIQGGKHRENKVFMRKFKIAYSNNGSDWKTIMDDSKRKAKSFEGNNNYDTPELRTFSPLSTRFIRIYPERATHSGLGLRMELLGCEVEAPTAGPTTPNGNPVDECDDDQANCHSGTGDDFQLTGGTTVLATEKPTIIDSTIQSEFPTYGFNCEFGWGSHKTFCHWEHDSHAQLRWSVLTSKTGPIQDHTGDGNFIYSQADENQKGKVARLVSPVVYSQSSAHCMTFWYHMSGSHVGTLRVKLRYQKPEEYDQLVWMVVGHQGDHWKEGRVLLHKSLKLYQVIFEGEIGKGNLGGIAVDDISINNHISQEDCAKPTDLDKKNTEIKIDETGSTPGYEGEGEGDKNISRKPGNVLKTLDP
The experiment can be described thus: SPR. In general terms: SPR reads the build-up and loss of mass on a sensor chip optically.

B1: cancer homing peptide (CHP, CGNKRTR), free peptide (peptide)
peptide: CGNKRTR
Consider B1, for which the Kd was 6.49 µM.
